Common to all, as to experiment: flow cytometry, alanine-scan library in HEK-293T
In general terms: In flow cytometry, cells or beads pass a laser one at a time.

One test deals with T1, hsGLUT4 Y502A (human, UniProt P14672 1-509).
T1 sequence: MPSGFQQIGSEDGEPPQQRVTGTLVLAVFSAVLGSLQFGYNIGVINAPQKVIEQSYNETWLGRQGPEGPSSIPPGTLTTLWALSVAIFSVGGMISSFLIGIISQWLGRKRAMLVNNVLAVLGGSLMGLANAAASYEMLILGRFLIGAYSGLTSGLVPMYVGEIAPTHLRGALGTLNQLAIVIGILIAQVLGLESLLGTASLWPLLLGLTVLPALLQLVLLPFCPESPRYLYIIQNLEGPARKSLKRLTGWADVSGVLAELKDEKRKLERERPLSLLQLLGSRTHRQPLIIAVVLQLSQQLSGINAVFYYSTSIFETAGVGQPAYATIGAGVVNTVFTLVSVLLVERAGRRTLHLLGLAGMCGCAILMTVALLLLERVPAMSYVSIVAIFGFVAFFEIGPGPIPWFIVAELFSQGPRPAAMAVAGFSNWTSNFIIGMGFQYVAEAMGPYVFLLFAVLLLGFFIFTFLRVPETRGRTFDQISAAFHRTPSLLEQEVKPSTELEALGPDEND
The procedure:
(§1) Because of the state-dependence of the isolated MAbs, we next wished to understand the mechanism by which each MAb could recognize GLUT4 in its different conformations. The residues required for binding of each MAb were determined using shotgun mutagenesis comprehensive alanine scanning (Davidson E & Doranz B J (2014) A High-Throughput Shotgun Mutagenesis Approach to Mapping B-cell Antibody Epitopes. Immunology, which is hereby incorporated by reference in its entirety). All residues of hsGLUT4 were individually mutated to alanine, with existing alanines changed to serines. Mutations were obtained for 508 of the 509 residues of GLUT4 (excluding the initiating methionine). The entire mutation library was transfected into human HEK-293T cells in a 384-well array format (one clone per well) and assessed for immunoreactivity using high-throughput flow cytometry.
(§2) HEK-293T cells were transfected by CaPO₄ with plasmids in 6-well culture plates (Falcon) at 750,000 cells/well. At 48 hours post transfection, cells were stained with anti-V5 and anti-GLUT4 MAbs (purified scFv, 2 μg/ml) followed by biotinylated goat anti-mouse or human antibody (1:500) and streptavidin-PerCP (1:500). Fluorescence was detected using an Intellicyt high-throughput flow cytometer (HTFC; Intellicyt, Albuquerque, N. Mex.). For cell permeabilization, cells were treated with saponin at 0.1% in PBS for 20 minutes. To discriminate intact (live) and permeabilized (dead) cells without the use of detergent, propidium iodide (PI) was added to HEK-293T cells at 1 ug/ml just prior to flow cytometry. Where indicated, cytochalasin B (Sigma) was used at a final concentration of 10 uM and phloretin (Sigma) was used at a final concentration of 100 uM, each added in 10% NGS for 30 minutes prior to antibody staining as well as included with the primary antibody.

The next test has as its target T2, hsGLUT4 L155A (human, UniProt P14672 1-509).
T2 sequence: T1 sequence with L155A, A502Y
The procedure:
as §1, §2

The target in a further test is T3, hsGLUT4 F307A (human, UniProt P14672 1-509).
T3 sequence: T1 sequence with F307A, A502Y
Here is the method: as §1, §2

A further test addresses T4, hsGLUT4 N304A (human, UniProt P14672 1-509).
T4 sequence: T1 sequence with N304A, A502Y
The procedure:
as §1, §2

Numbering of substitutions follows the chain as printed.

Regarding 1F8 (antibody), the % of binding to wild type GLUT4 in the test with hsGLUT4 Y502A came out at 51%; in the test with hsGLUT4 L155A, 91%; with hsGLUT4 F307A, 84%; in the test with hsGLUT4 N304A, 79%.

B1: AB108 (Fc fusion)
scFv: ALTQPSSVSANLGGTVKITCSGSSGSYGWYQQKAPGSAPVTLIYRNDKRPSDIPSRFSGSESGSTGTLTITGVQAEDEAVYFCGGYDSSAGYAAFGAGTTLTVLGQSSRSSGGGGSSGGGGSAVTLDESGGGLQTPGGALSLVCKASGFTFSSHGMGWVRQAPGKGLEWVGSISTGRYTFYAPAVKGRATISRDNGQSTLRLQLNNLRAEDTGTYYCTKCAGLNGCGGGEIDAWGHGTEVIVSS
notes: Bivalent scFv-Fc; also called MAb AB108; not shown: Fc fragment of human IgG1, cloned in frame with the scFv
As to B1, the “% of binding to wild type GLUT4” value came out at 94% with hsGLUT4 Y502A, 42% with hsGLUT4 L155A, 74% in the test with hsGLUT4 F307A and 72% with hsGLUT4 N304A.

B2: AB105 (Fc fusion)
scFv: ALTQPSSVSANPGETVEITCSGDSSYYGWYQQKSPGSAPVTVIYANTNRPSDIPSRFSGSASGSTATLTITGVQAEDEAVYYCGSADSTYAGIFGAGTTLTVLGQSSRSSGGGGSSGGGGSAVTLDESGGGLQTPGGALSLICKASGFTFSSYTMNWVRQAPGKGLEWVGVISNSGRTTNYGAAVQGRATISRDNGQSTVRLQLNNLRAEDTGTYYCAKSSASASCAWWAGRSYPCSANRIDAWGHGTEVIVSS
notes: Bivalent scFv-Fc; also called MAb AB105; not shown: Fc fragment of human IgG1, cloned in frame with the scFv
B2: the % of binding to wild type GLUT4 with hsGLUT4 N304A was found to be 11%.

B3: AB101 (scFv)
scFv: ALTQPSSVSANPGETVKITCSGSSNSYGWYQQKSPGSAPVTVIYYNDKRPSDIPSRFSGSKSDSTHTLTITGVRAEDEAVYFCGSYDSTYVGIFGAGTTLTVLGQSSRSSGGGGSSGGGGSAVTLDESGGGLQTPGGTLSLVCKASGFTFSSNAMGWVRQAPGKGLEWVAGISSDGRYTKYGSAVKGRATISRDNGQSTVRLQLNNLRAEDTGTYFCAKAFGNNYRRIYAGQIDAWGHGTEVIVSS
notes: Chicken-derived clone used as a control; the four lead clones were tested as scFv-human IgG1 Fc; also called MAb AB101
With B3, the “% of binding to wild type GLUT4” value worked out at 4% with hsGLUT4 Y502A, 88% with hsGLUT4 L155A, 82% with hsGLUT4 F307A and 145% in the test with hsGLUT4 N304A.

B4: AB111 (Fc fusion)
scFv: ALTQPSSVSANPGETVKITCSGSGSWYGWFQQKSPGSAPVTVIYSNDKRPSDIPSRFSGSKSGSTSTLTITGVQVEDEAVYYCGNWDIFGAGTTLTVLGQSSRSSGGGGSSGGGGSAVTLDESGGGLQTPGGALSLVCKASGFTFSSHGMGWVRQAPGKGLEWVASISTGRYTFYAPAVKGRATISRDNGQSTVRLQLNNLRAEDTATYYCTKCAGLNGCGGGEIDAWGHGTEVIVSS
notes: Bivalent scFv-Fc; also called MAb AB111; not shown: Fc fragment of human IgG1, cloned in frame with the scFv
For the molecule B4, the “% of binding to wild type GLUT4” value with hsGLUT4 Y502A was 169%; with hsGLUT4 L155A, 57%; in the test with hsGLUT4 F307A, 108%; with hsGLUT4 N304A, 125%.
